{"source": "patent US12173301B2", "about": "“Weed control methods and related compositions and plants” (Syngenta Crop Protection AG, priority 2019, dated 2024)", "molecules": {"B1": {"name": "Y217L: Arabidopsis FatA acyl-ACP thioesterase variant, substitution Y217L relative to SEQ ID NO: 1 (protein, listed as Arabidopsis thaliana)", "chain": "MLKLSCNVTDSKLQRSLLFFSHSYRSDPVNFIRRRIVSCSQTKKTGLVPLRAVVSADQGSVVQGLATLADQLRLGSLTEDGLSYKEKFVVRSYEVGSNKTATVETIANLLQEVGCNHAQSVGFSTDGFATTTTMRKLHLIWVTARMHIEIYKYPAWGDVVEIETWCQSEGRIGTRRDWILKDSVTGEVTGRATSKWVMMNQDTRRLQKVSDDVRDELLVFCPQEPRLAFPEENNRSLKKIPKLEDPAQYSMIGLKPRRADLDMNQHVNNVTYIGWVLESIPQEIVDTHELQVITLDYRRECQQDDVVDSLTTTTSEIGGTNGSATSGTQGHNDSQFLHLLRLSGDGQEINRGTTLWRKKPSS"}, "B2": {"name": "L218C: Arabidopsis FatA acyl-ACP thioesterase variant, substitution L218C relative to SEQ ID NO: 1 (protein, listed as Arabidopsis thaliana)", "chain": "B1 chain with L217Y, L218C"}, "B3": {"name": "F123C: Arabidopsis FatA acyl-ACP thioesterase variant, substitution F123C relative to SEQ ID NO: 1 (protein, listed as Arabidopsis thaliana)", "chain": "B1 chain with F123C, L217Y"}, "B4": {"name": "C221F: Arabidopsis FatA acyl-ACP thioesterase variant, substitution C221F relative to SEQ ID NO: 1 (protein, listed as Arabidopsis thaliana)", "chain": "B1 chain with L217Y, C221F"}, "B5": {"name": "F220H: Arabidopsis FatA acyl-ACP thioesterase variant, substitution F220H relative to SEQ ID NO: 1 (protein, listed as Arabidopsis thaliana)", "chain": "B1 chain with L217Y, F220H"}, "B6": {"name": "S168C: Arabidopsis FatA acyl-ACP thioesterase variant, substitution S168C relative to SEQ ID NO: 1 (protein, listed as Arabidopsis thaliana)", "chain": "B1 chain with S168C, L217Y"}, "B7": {"name": "A118V: Arabidopsis FatA acyl-ACP thioesterase variant, substitution A118V relative to SEQ ID NO: 1 (protein, listed as Arabidopsis thaliana)", "chain": "B1 chain with A118V, L217Y"}, "B8": {"name": "G114S: Arabidopsis FatA acyl-ACP thioesterase variant, substitution G114S relative to SEQ ID NO: 1 (protein, listed as Arabidopsis thaliana)", "chain": "B1 chain with G114S, L217Y"}, "B9": {"name": "A144Y: Arabidopsis FatA acyl-ACP thioesterase variant, substitution A144Y relative to SEQ ID NO: 1 (protein, listed as Arabidopsis thaliana)", "chain": "B1 chain with A144Y, L217Y"}, "B10": {"name": "V121N: Arabidopsis FatA acyl-ACP thioesterase variant, substitution V121N relative to SEQ ID NO: 1 (protein, listed as Arabidopsis thaliana)", "chain": "B1 chain with V121N, L217Y"}, "B11": {"name": "F123N: Arabidopsis FatA acyl-ACP thioesterase variant, substitution F123N relative to SEQ ID NO: 1 (protein, listed as Arabidopsis thaliana)", "chain": "B1 chain with F123N, L217Y"}, "B12": {"name": "N269Y: Arabidopsis FatA acyl-ACP thioesterase variant, substitution N269Y relative to SEQ ID NO: 1 (protein, listed as Arabidopsis thaliana)", "chain": "B1 chain with L217Y, N269Y"}, "B13": {"name": "S168R: Arabidopsis FatA acyl-ACP thioesterase variant, substitution S168R relative to SEQ ID NO: 1 (protein, listed as Arabidopsis thaliana)", "chain": "B1 chain with S168R, L217Y"}, "B14": {"name": "N269W: Arabidopsis FatA acyl-ACP thioesterase variant, substitution N269W relative to SEQ ID NO: 1 (protein, listed as Arabidopsis thaliana)", "chain": "B1 chain with L217Y, N269W"}}, "experiment": "FatA enzymatic kinetic parameters with oleoyl-CoA as substrate", "assay_type": "biochemical", "details": "Michaelis-Menten; for Km: read-out: Km (μM) - best fit", "experimental": "For the determination of FatA enzymatic kinetic parameters with oleoyl-CoA as substrate, assays are carried out essentially as described above for the testing of inhibitor compounds but with some changes to the method as follows. Oleoyl CoA is omitted from the assay master mix and added as a separate component to achieve final concentration of 40 μM, 23.5 μM. 13.8 μM, 8.1 μM, 4.8 μM, 2.8 μM and 1.7 μM (i.e. 1.7× dilution scheme). The level of enzymatic activity is determined from the slope of the progress curve (initial linear rates) using assay values measured at 0, 20, 40, 60, 90 and 120 s after addition of the enzyme. Kinetic parameters are then calculated using the Michaelis-Menten model as implemented in GraphPad Prism software.\nFatA variant enzymes were prepared from 1 L E coli grows and assays carried out to determine enzyme kinetics as described in Example 1.", "note": "Changes are numbered by the printed parent chain. Names may count otherwise."}
{"molecule": "B1", "values": [{"measurement": "kcat (s^−1) - best fit", "result": 1.7, "unit": "s⁻¹"}, {"measurement": "Km", "result": 4.7, "unit": "µM"}]}
{"molecule": "B2", "values": [{"measurement": "kcat (s^−1) - best fit", "result": 1.1, "unit": "s⁻¹"}, {"measurement": "Km", "result": 0.8, "unit": "µM"}]}
{"molecule": "B3", "values": [{"measurement": "kcat (s^−1) - best fit", "result": 0.3, "unit": "s⁻¹"}, {"measurement": "Km", "result": 4.8, "unit": "µM"}]}
{"molecule": "B4", "values": [{"measurement": "kcat (s^−1) - best fit", "result": 1.5, "unit": "s⁻¹"}, {"measurement": "Km", "result": 4.3, "unit": "µM"}]}
{"molecule": "B5", "values": [{"measurement": "kcat (s^−1) - best fit", "result": 2.0, "unit": "s⁻¹"}, {"measurement": "Km", "result": 3.2, "unit": "µM"}]}
{"molecule": "B6", "values": [{"measurement": "kcat (s^−1) - best fit", "result": 1.2, "unit": "s⁻¹"}, {"measurement": "Km", "result": 6.2, "unit": "µM"}]}
{"molecule": "B7", "values": [{"measurement": "kcat (s^−1) - best fit", "result": 4.5, "unit": "s⁻¹"}, {"measurement": "Km", "result": 2.4, "unit": "µM"}]}
{"molecule": "B8", "values": [{"measurement": "kcat (s^−1) - best fit", "result": 2.3, "unit": "s⁻¹"}, {"measurement": "Km", "result": 2.8, "unit": "µM"}]}
{"molecule": "B9", "values": [{"measurement": "kcat (s^−1) - best fit", "result": 11.5, "unit": "s⁻¹"}, {"measurement": "Km", "result": 3.9, "unit": "µM"}]}
{"molecule": "B10", "values": [{"measurement": "kcat (s^−1) - best fit", "result": 0.8, "unit": "s⁻¹"}, {"measurement": "Km", "result": 7.1, "unit": "µM"}]}
{"molecule": "B11", "values": [{"measurement": "kcat (s^−1) - best fit", "result": 0.3, "unit": "s⁻¹"}, {"measurement": "Km", "result": 14.6, "unit": "µM"}]}
{"molecule": "B12", "values": [{"measurement": "kcat (s^−1) - best fit", "result": 6.1, "unit": "s⁻¹"}, {"measurement": "Km", "result": 4, "unit": "µM"}]}
{"molecule": "B13", "values": [{"measurement": "kcat (s^−1) - best fit", "result": 1.3, "unit": "s⁻¹"}, {"measurement": "Km", "result": 3, "unit": "µM"}]}
{"molecule": "B14", "values": [{"measurement": "kcat (s^−1) - best fit", "result": 0.7, "unit": "s⁻¹"}, {"measurement": "Km", "result": 1, "unit": "µM"}]}
